T1: human IL-18BP (human, UniProt O95998 31-194)
T1 construct: UniProt printed as 095998; also called hIL-18BP
T1 sequence: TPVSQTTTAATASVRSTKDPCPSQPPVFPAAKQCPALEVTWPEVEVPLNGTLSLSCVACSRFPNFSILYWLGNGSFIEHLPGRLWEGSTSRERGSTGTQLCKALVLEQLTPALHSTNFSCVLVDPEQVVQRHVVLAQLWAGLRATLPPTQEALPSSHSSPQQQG

B1: SA302a HC-N33bR (antibody, V domains shown)
VH: QVQLQESGPGLVKPSQTLSLTCTVSGYSITSDYRAHWIRQPPGKGLEWIGYIHYSGSTNYNPSLKSRVTISRDTSKNQFSLKLSSVTAADTAVYYCARNYGSIYVNYFDYWGQGTLVTVSS
VL: EIVLTQSPATLSLSPGERATLSCSASSSVSYMYWYQQKPGQAPRPLIYRTSNLASGIPARFSGSGSGTDFTLTISSLEPEDFAVYYCQQYHSYPTFGGGTKVEIK
B2: SA302a HC-H35N (antibody, V domains shown)
VH: QVQLQESGPGLVKPSQTLSLTCTVSGYSITSDYNANWIRQPPGKGLEWIGYIHYSGSTNYNPSLKSRVTISRDTSKNQFSLKLSSVTAADTAVYYCARNYGSIYVNYFDYWGQGTLVTVSS
VL: EIVLTQSPATLSLSPGERATLSCSASSSVSYMYWYQQKPGQAPRPLIYRTSNLASGIPARFSGSGSGTDFTLTISSLEPEDFAVYYCQQYHSYPTFGGGTKVEIK
B3: SA302a HC-H35L (antibody, V domains shown)
VH: QVQLQESGPGLVKPSQTLSLTCTVSGYSITSDYNALWIRQPPGKGLEWIGYIHYSGSTNYNPSLKSRVTISRDTSKNQFSLKLSSVTAADTAVYYCARNYGSIYVNYFDYWGQGTLVTVSS
VL: EIVLTQSPATLSLSPGERATLSCSASSSVSYMYWYQQKPGQAPRPLIYRTSNLASGIPARFSGSGSGTDFTLTISSLEPEDFAVYYCQQYHSYPTFGGGTKVEIK
B4: SA302a HC-N33bH (antibody, V domains shown)
VH: QVQLQESGPGLVKPSQTLSLTCTVSGYSITSDYHAHWIRQPPGKGLEWIGYIHYSGSTNYNPSLKSRVTISRDTSKNQFSLKLSSVTAADTAVYYCARNYGSIYVNYFDYWGQGTLVTVSS
VL: EIVLTQSPATLSLSPGERATLSCSASSSVSYMYWYQQKPGQAPRPLIYRTSNLASGIPARFSGSGSGTDFTLTISSLEPEDFAVYYCQQYHSYPTFGGGTKVEIK
B5: SA302a HC-N33bD (antibody, V domains shown)
VH: QVQLQESGPGLVKPSQTLSLTCTVSGYSITSDYDAHWIRQPPGKGLEWIGYIHYSGSTNYNPSLKSRVTISRDTSKNQFSLKLSSVTAADTAVYYCARNYGSIYVNYFDYWGQGTLVTVSS
VL: EIVLTQSPATLSLSPGERATLSCSASSSVSYMYWYQQKPGQAPRPLIYRTSNLASGIPARFSGSGSGTDFTLTISSLEPEDFAVYYCQQYHSYPTFGGGTKVEIK
B6: SA302a HC-H35D (antibody, V domains shown)
VH: QVQLQESGPGLVKPSQTLSLTCTVSGYSITSDYNADWIRQPPGKGLEWIGYIHYSGSTNYNPSLKSRVTISRDTSKNQFSLKLSSVTAADTAVYYCARNYGSIYVNYFDYWGQGTLVTVSS
VL: EIVLTQSPATLSLSPGERATLSCSASSSVSYMYWYQQKPGQAPRPLIYRTSNLASGIPARFSGSGSGTDFTLTISSLEPEDFAVYYCQQYHSYPTFGGGTKVEIK
B7: SA302a HC-N33bT (antibody, V domains shown)
VH: QVQLQESGPGLVKPSQTLSLTCTVSGYSITSDYTAHWIRQPPGKGLEWIGYIHYSGSTNYNPSLKSRVTISRDTSKNQFSLKLSSVTAADTAVYYCARNYGSIYVNYFDYWGQGTLVTVSS
VL: EIVLTQSPATLSLSPGERATLSCSASSSVSYMYWYQQKPGQAPRPLIYRTSNLASGIPARFSGSGSGTDFTLTISSLEPEDFAVYYCQQYHSYPTFGGGTKVEIK
B8: SA302a HC-H35R (antibody, V domains shown)
VH: QVQLQESGPGLVKPSQTLSLTCTVSGYSITSDYNARWIRQPPGKGLEWIGYIHYSGSTNYNPSLKSRVTISRDTSKNQFSLKLSSVTAADTAVYYCARNYGSIYVNYFDYWGQGTLVTVSS
VL: EIVLTQSPATLSLSPGERATLSCSASSSVSYMYWYQQKPGQAPRPLIYRTSNLASGIPARFSGSGSGTDFTLTISSLEPEDFAVYYCQQYHSYPTFGGGTKVEIK
B9: SA302a HC-N33bV (antibody, V domains shown)
VH: QVQLQESGPGLVKPSQTLSLTCTVSGYSITSDYVAHWIRQPPGKGLEWIGYIHYSGSTNYNPSLKSRVTISRDTSKNQFSLKLSSVTAADTAVYYCARNYGSIYVNYFDYWGQGTLVTVSS
VL: EIVLTQSPATLSLSPGERATLSCSASSSVSYMYWYQQKPGQAPRPLIYRTSNLASGIPARFSGSGSGTDFTLTISSLEPEDFAVYYCQQYHSYPTFGGGTKVEIK
B10: SA302a HC-H35G (antibody, V domains shown)
VH: QVQLQESGPGLVKPSQTLSLTCTVSGYSITSDYNAGWIRQPPGKGLEWIGYIHYSGSTNYNPSLKSRVTISRDTSKNQFSLKLSSVTAADTAVYYCARNYGSIYVNYFDYWGQGTLVTVSS
VL: EIVLTQSPATLSLSPGERATLSCSASSSVSYMYWYQQKPGQAPRPLIYRTSNLASGIPARFSGSGSGTDFTLTISSLEPEDFAVYYCQQYHSYPTFGGGTKVEIK
B11: SA302a HC-N33bA (antibody, V domains shown)
VH: QVQLQESGPGLVKPSQTLSLTCTVSGYSITSDYAAHWIRQPPGKGLEWIGYIHYSGSTNYNPSLKSRVTISRDTSKNQFSLKLSSVTAADTAVYYCARNYGSIYVNYFDYWGQGTLVTVSS
VL: EIVLTQSPATLSLSPGERATLSCSASSSVSYMYWYQQKPGQAPRPLIYRTSNLASGIPARFSGSGSGTDFTLTISSLEPEDFAVYYCQQYHSYPTFGGGTKVEIK
B12: SA302a HC-N33bQ (antibody, V domains shown)
VH: QVQLQESGPGLVKPSQTLSLTCTVSGYSITSDYQAHWIRQPPGKGLEWIGYIHYSGSTNYNPSLKSRVTISRDTSKNQFSLKLSSVTAADTAVYYCARNYGSIYVNYFDYWGQGTLVTVSS
VL: EIVLTQSPATLSLSPGERATLSCSASSSVSYMYWYQQKPGQAPRPLIYRTSNLASGIPARFSGSGSGTDFTLTISSLEPEDFAVYYCQQYHSYPTFGGGTKVEIK
B13: SA302a HC-N33bK (antibody, V domains shown)
VH: QVQLQESGPGLVKPSQTLSLTCTVSGYSITSDYKAHWIRQPPGKGLEWIGYIHYSGSTNYNPSLKSRVTISRDTSKNQFSLKLSSVTAADTAVYYCARNYGSIYVNYFDYWGQGTLVTVSS
VL: EIVLTQSPATLSLSPGERATLSCSASSSVSYMYWYQQKPGQAPRPLIYRTSNLASGIPARFSGSGSGTDFTLTISSLEPEDFAVYYCQQYHSYPTFGGGTKVEIK
B14: SA302a HC-N33bP (antibody, V domains shown)
VH: QVQLQESGPGLVKPSQTLSLTCTVSGYSITSDYPAHWIRQPPGKGLEWIGYIHYSGSTNYNPSLKSRVTISRDTSKNQFSLKLSSVTAADTAVYYCARNYGSIYVNYFDYWGQGTLVTVSS
VL: EIVLTQSPATLSLSPGERATLSCSASSSVSYMYWYQQKPGQAPRPLIYRTSNLASGIPARFSGSGSGTDFTLTISSLEPEDFAVYYCQQYHSYPTFGGGTKVEIK
B15: SA301a HC-H52A (antibody, name in Kabat numbering, V domains shown)
VH: QVQLQESGPGLVKPSQTLSLTCTVSGYSITSDYNSHWIRQPPGKGLEWIGYIAYSGSTNYNPSLKSRVTISRDTSKNQFSLKLSSVTAADTAVYYCARNYGSIYVNYFDYWGQGTLVTVSS
VL: EIVLTQSPATLSLSPGERATLSCSASSSVSYMYWYQQKPGQAPRPLIYRTSNLASGIPARFSGSGSGTDFTLTISSLEPEDFAVYYCQQYHSYPTFGGGTKVEIK
notes: IgG1 kappa
B16: SA301a HC-H52K (antibody, name in Kabat numbering, V domains shown)
VH: QVQLQESGPGLVKPSQTLSLTCTVSGYSITSDYNSHWIRQPPGKGLEWIGYIKYSGSTNYNPSLKSRVTISRDTSKNQFSLKLSSVTAADTAVYYCARNYGSIYVNYFDYWGQGTLVTVSS
VL: EIVLTQSPATLSLSPGERATLSCSASSSVSYMYWYQQKPGQAPRPLIYRTSNLASGIPARFSGSGSGTDFTLTISSLEPEDFAVYYCQQYHSYPTFGGGTKVEIK
notes: IgG1 kappa
B17: SA301a HC-H52Y (antibody, name in Kabat numbering, V domains shown)
VH: QVQLQESGPGLVKPSQTLSLTCTVSGYSITSDYNSHWIRQPPGKGLEWIGYIYYSGSTNYNPSLKSRVTISRDTSKNQFSLKLSSVTAADTAVYYCARNYGSIYVNYFDYWGQGTLVTVSS
VL: EIVLTQSPATLSLSPGERATLSCSASSSVSYMYWYQQKPGQAPRPLIYRTSNLASGIPARFSGSGSGTDFTLTISSLEPEDFAVYYCQQYHSYPTFGGGTKVEIK
notes: IgG1 kappa
B18: SA301a HC-H52P (antibody, name in Kabat numbering, V domains shown)
VH: QVQLQESGPGLVKPSQTLSLTCTVSGYSITSDYNSHWIRQPPGKGLEWIGYIPYSGSTNYNPSLKSRVTISRDTSKNQFSLKLSSVTAADTAVYYCARNYGSIYVNYFDYWGQGTLVTVSS
VL: EIVLTQSPATLSLSPGERATLSCSASSSVSYMYWYQQKPGQAPRPLIYRTSNLASGIPARFSGSGSGTDFTLTISSLEPEDFAVYYCQQYHSYPTFGGGTKVEIK
notes: IgG1 kappa
B19: SA301a HC-H52T (antibody, name in Kabat numbering, V domains shown)
VH: QVQLQESGPGLVKPSQTLSLTCTVSGYSITSDYNSHWIRQPPGKGLEWIGYITYSGSTNYNPSLKSRVTISRDTSKNQFSLKLSSVTAADTAVYYCARNYGSIYVNYFDYWGQGTLVTVSS
VL: EIVLTQSPATLSLSPGERATLSCSASSSVSYMYWYQQKPGQAPRPLIYRTSNLASGIPARFSGSGSGTDFTLTISSLEPEDFAVYYCQQYHSYPTFGGGTKVEIK
notes: IgG1 kappa
B20: SA301a HC-S54L (antibody, name in Kabat numbering, V domains shown)
VH: QVQLQESGPGLVKPSQTLSLTCTVSGYSITSDYNSHWIRQPPGKGLEWIGYIHYLGSTNYNPSLKSRVTISRDTSKNQFSLKLSSVTAADTAVYYCARNYGSIYVNYFDYWGQGTLVTVSS
VL: EIVLTQSPATLSLSPGERATLSCSASSSVSYMYWYQQKPGQAPRPLIYRTSNLASGIPARFSGSGSGTDFTLTISSLEPEDFAVYYCQQYHSYPTFGGGTKVEIK
notes: IgG1 kappa
B21: SA301a HC-S54G (antibody, name in Kabat numbering, V domains shown)
VH: QVQLQESGPGLVKPSQTLSLTCTVSGYSITSDYNSHWIRQPPGKGLEWIGYIHYGGSTNYNPSLKSRVTISRDTSKNQFSLKLSSVTAADTAVYYCARNYGSIYVNYFDYWGQGTLVTVSS
VL: EIVLTQSPATLSLSPGERATLSCSASSSVSYMYWYQQKPGQAPRPLIYRTSNLASGIPARFSGSGSGTDFTLTISSLEPEDFAVYYCQQYHSYPTFGGGTKVEIK
notes: IgG1 kappa

For one assay, the target named is T1, human IL-18BP. The assay can be described thus: BLI, apparent KD.
In the case of B1, the Kd is 2.23 nM.

With B2, the Kd came out at 3.02 nM.

Regarding B3, the Kd came to 1.74 nM.

Regarding B4, the Kd amounted to 2.91 nM.

For the molecule B5, the Kd is 1.03 nM.

For the molecule B6, the Kd turned out to be 4.23 nM.

Consider B7, for which the Kd stood at 1.63 nM.

With B8, the Kd was determined as 1.18 nM.

With B9, the Kd is 1.36 nM.

For the molecule B10, the Kd is 2.05 nM.

Take B11: the Kd was 5.45 nM.

As for B12, the Kd was determined as 6.01 nM.

Turning to B13, the Kd was determined as 1.12 nM.

In the case of B14, the Kd was 6.05 nM.

Another assay concerns the target T1, human IL-18BP. The assay can be described thus: BLI, apparent KD. This is another data set of the same source.
For B15, the Kd came out at 0.24 nM.

For the molecule B16, the Kd was determined as 0.01 nM.

Regarding B17, the Kd was 0.79 nM.

With B18, the Kd stood at 0.01 nM.

For the molecule B19, the Kd was 1.92 nM.

For B20, the Kd stood at 2.64 nM.

B21: the Kd was 0.33 nM.

(Values after patent publication US20250368745A1 (published 2025).)
